Data reported in PMC8458385, “Molecular basis for PICS-mediated piRNA biogenesis and cell division” (Nature Communications, 2021).

B3: ERH-2 (natural protein, C. elegans, UniProt Q20057 1-113, looked up)
chain: MSTSSHTVLLIQTSPRLDSRTWGDYESVTDALDALCKMFEDFLSKKSAAPVTYDVSQVYEFLDKLSDVSMMIFNRETGQYIGRTRAWIKQQVYEMMRGRCQHPEGGEKVIVGY
notes: ERH-2, C. elegans, amplified from a cDNA library; also called wild type ERH-2; source: E. coli BL21(DE3), purified (Ni-NTA, TEV, second Ni-NTA); not shown: His tag (from the Ni-NTA purification), N-terminal, cleaved

Tests used:
[1] = biological target: T1, TOFU-6^RRM (residues 2-92) (C. elegans, UniProt Q09293 2-92); experiment: ITC; MicroCal ITC200, 25 °C, 20 mM Tris pH 8.5, 200 mM NaCl or 20 mM MES pH 6.5, 200 mM NaCl; 1–2 mM in the syringe into 30–50 μM in the cell; one-site binding model; conditions: both partners purified
T1 construct: TOFU-6, C. elegans, RRM domain, residues 2-92; Gene codon-optimised and synthesised; for the crystal co-expressed with PICS-1^RRM from a modified pETDuet-1; also called TOFU-6 RRM domain; TOFU-6^C; source: E. coli BL21(DE3), purified (Ni-NTA, TEV, second Ni-NTA; complex with PICS-1^RRM also Superdex 75); not shown: His tag (from the Ni-NTA purification), N-terminal, cleaved
T1 sequence (looked up): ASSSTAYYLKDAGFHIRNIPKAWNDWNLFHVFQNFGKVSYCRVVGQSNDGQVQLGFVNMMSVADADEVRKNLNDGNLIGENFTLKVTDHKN

[2] = biological target: the molecule itself; experiment: SEC; wild type and F217E of PICS-1^RRM on HiLoad 16/600 Superdex 75, 20 mM Tris hydrochloride pH 8.5, 200 mM NaCl
ERH-2 D67A = biological target: T2, ERH-2 D67A (C. elegans, UniProt Q20057 1-113, D67A); experiment: ITC; MicroCal ITC200, 25 °C, 20 mM Tris pH 8.5, 200 mM NaCl or 20 mM MES pH 6.5, 200 mM NaCl; 1–2 mM in the syringe into 30–50 μM in the cell; one-site binding model; conditions: both partners purified
T2 construct: ERH-2, C. elegans; Cloned into pET28-MHL; also called D67A of ERH-2; source: E. coli BL21(DE3), purified as the wild type; not shown: His tag (from the Ni-NTA purification), N-terminal, cleaved
T2 sequence (looked up): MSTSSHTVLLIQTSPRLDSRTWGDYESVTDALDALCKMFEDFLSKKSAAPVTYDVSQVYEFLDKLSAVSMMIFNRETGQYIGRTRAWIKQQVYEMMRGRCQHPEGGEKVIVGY

ERH-2 = biological target: B3; experiment: as above; conditions: both partners purified
PICS-1^5-200 = biological target: T3, PICS-1^5-200 (C. elegans, UniProt O76616 5-200); experiment: SEC; ERH-2 and TOFU-6^RRM mixed with PICS-1 constructs, Superose 6 Increase 10/300 GL, 20 mM Tris hydrochloride pH 8.5, 200 mM NaCl; fractions on SDS-PAGE; conditions: both partners purified
T3 construct: PICS-1 (PID-3), C. elegans, residues 5-200; Cloned into pET28-MHL; also called PICS-1^ΔRRM; PICS1^ΔRRM; source: E. coli BL21(DE3), purified (Ni-NTA, TEV, second Ni-NTA); not shown: His tag (from the Ni-NTA purification), N-terminal, cleaved
T3 sequence (looked up): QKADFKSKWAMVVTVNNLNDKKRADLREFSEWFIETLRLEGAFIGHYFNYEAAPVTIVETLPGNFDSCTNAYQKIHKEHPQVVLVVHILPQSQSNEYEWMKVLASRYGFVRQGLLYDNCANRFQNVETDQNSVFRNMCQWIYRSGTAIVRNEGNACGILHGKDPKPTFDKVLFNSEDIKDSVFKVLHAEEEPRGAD

PICS-1^5-282 = biological target: T4, PICS-1^5-282 (C. elegans, UniProt O76616 5-282); experiment: as above; conditions: both partners purified
T4 construct: Cloned into pET28-MHL; also called almost full-length PICS-1; source: E. coli BL21(DE3), purified (Ni-NTA, TEV, second Ni-NTA); not shown: His tag (from the Ni-NTA purification), N-terminal, cleaved
T4 sequence (looked up): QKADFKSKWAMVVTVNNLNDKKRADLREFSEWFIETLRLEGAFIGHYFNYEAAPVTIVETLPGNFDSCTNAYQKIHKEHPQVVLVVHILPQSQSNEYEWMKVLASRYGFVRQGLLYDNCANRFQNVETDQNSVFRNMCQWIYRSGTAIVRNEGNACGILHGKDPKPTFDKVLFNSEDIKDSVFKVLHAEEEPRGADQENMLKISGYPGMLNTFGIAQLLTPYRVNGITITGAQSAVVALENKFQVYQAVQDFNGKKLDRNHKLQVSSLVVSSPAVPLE

[3] = biological target: T5, TOFU-6^RRM (L73M) (SeMet) (C. elegans, UniProt Q09293 2-92, L73M, seleno-methionine (SeMet) labeled); experiment: crystal structure; SeMet TOFU-6^RRM (L73M)/PICS-1^RRM (I233M) complex, 1.95 Å; 2% 1,4-dioxane, 0.1 M Tris hydrochloride pH 8.0, 15% PEG 3350, 0.01 M nickel chloride, 18 °C; conditions: both partners purified
T5 construct: TOFU-6, C. elegans, RRM domain, residues 2-92; also called SeMet TOFU-6^RRM(L73M); source: E. coli BL21(DE3) in M9 medium with SeMet, purified with PICS-1^RRM (I233M) (Ni-NTA, TEV, Superdex 75); not shown: His tag (from the Ni-NTA purification), N-terminal, cleaved
T5 sequence (looked up): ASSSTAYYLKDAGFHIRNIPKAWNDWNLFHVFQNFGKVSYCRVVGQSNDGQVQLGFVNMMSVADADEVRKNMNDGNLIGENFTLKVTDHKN

[4] = biological target: the molecule itself; experiment: as above
[5] = biological target: the molecule itself; experiment: crystal structure; fusion protein ERH-2^1-103-(GSS)7-PICS-1^180-200, 2.40 Å; 15% 2-propanol, 0.1 M sodium citrate pH 5.0, 10% PEG 10000, 18 °C
[6] = biological target: T6, ERH-2^1-103-(Gly-Ser-Ser)7-PICS-1^180-200 (C. elegans, UniProt Q20057 1-103; O76616 180-200); experiment: ITC; MicroCal ITC200, 25 °C, 20 mM Tris pH 8.5, 200 mM NaCl or 20 mM MES pH 6.5, 200 mM NaCl; 1–2 mM in the syringe into 30–50 μM in the cell; one-site binding model; conditions: both partners purified
T6 construct: ERH-2, C. elegans, residues 1-103; 21-aa linker (Gly-Ser-Ser)7; PICS-1 (PID-3), C. elegans, EBM, residues 180-200; Cloned into pET28-MHL; The results on ITC say only 'ERH-2' for the fused part; the methods describe only the 1-103 fusion; also called ERH-2-(GSS)7-PICS-1; ERH-2^1-103-(GSS)7-PICS-1^180-200; source: E. coli BL21(DE3), purified (Ni-NTA, TEV, second Ni-NTA, Superdex 75); not shown: His …
T6 chain: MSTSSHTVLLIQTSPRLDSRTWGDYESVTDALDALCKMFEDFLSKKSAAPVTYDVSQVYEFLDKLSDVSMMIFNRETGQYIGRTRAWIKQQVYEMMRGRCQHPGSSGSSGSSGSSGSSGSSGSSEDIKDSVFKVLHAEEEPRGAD

B1: PICS-1^RRM (residues 201-282) (domain or fragment, C. elegans, UniProt O76616 201-282, looked up)
chain: QENMLKISGYPGMLNTFGIAQLLTPYRVNGITITGAQSAVVALENKFQVYQAVQDFNGKKLDRNHKLQVSSLVVSSPAVPLE
notes: Homodimer in the crystal and by gel filtration; also called PICS-1(PID-3) RRM domain; PID-3; source: E. coli BL21(DE3), purified (Ni-NTA, TEV, second Ni-NTA, Superdex 75); not shown: His tag (from the Ni-NTA purification), N-terminal, cleaved
[1]
  Kd: 0.0062 µM
[2]
  binding result: binds

B2: SUMO-fused PICS-1 ERH-2 binding motif (EBM, residues 180-200) (domain or fragment, C. elegans, UniProt O76616 180-200, looked up)
chain: EDIKDSVFKVLHAEEEPRGAD
notes: Cloned into pET28-SUMO; the Kds are for the SUMO fusion protein; also called PICS-1^EBM; PICS-1^180-200; source: E. coli BL21(DE3), purified (Ni-NTA); not shown: SUMO, N-terminal, kept
ERH-2 D67A
  Kd: 4.3 µM
ERH-2
  Kd: 8.5 µM

## B3
PICS-1^5-200
  binding result: binds
PICS-1^5-282
  binding result: binds

B4: PICS-1^RRM (I233M) (SeMet) (domain or fragment, C. elegans, UniProt O76616 201-282, looked up)
chain: QENMLKISGYPGMLNTFGIAQLLTPYRVNGITMTGAQSAVVALENKFQVYQAVQDFNGKKLDRNHKLQVSSLVVSSPAVPLE
modifications: seleno-methionine (SeMet) labeled
notes: also called SeMet PICS-1^RRM(I233M); source: E. coli BL21(DE3) in M9 medium with SeMet, purified with TOFU-6^RRM (L73M) (Ni-NTA, TEV, Superdex 75); not shown: His tag (from the Ni-NTA purification), N-terminal, cleaved
[3]
  binding result: binds
[4]
  binding result: binds

B5: ERH-2 (1-103), the ERH-2 part of the crystallised fusion proteins (domain or fragment, C. elegans, UniProt Q20057 1-103, looked up)
chain: MSTSSHTVLLIQTSPRLDSRTWGDYESVTDALDALCKMFEDFLSKKSAAPVTYDVSQVYEFLDKLSDVSMMIFNRETGQYIGRTRAWIKQQVYEMMRGRCQHP
notes: ERH-2, C. elegans, residues 1-103; In the crystals it stood joined on one chain with PICS-1^180-200 (via (GSS)7) or TOST-1^34-54 (via (GSS)6); written apart for the rows of the two partners; also called ERH-2^A; ERH-2^B; source: E. coli BL21(DE3), purified as part of the fusion proteins m8 and m9
[5]
  binding result: binds

B6: SUMO-fused PID-1^50-70 (domain or fragment, C. elegans, UniProt Q19541 50-70, looked up)
chain: TNLHRKVTLSDRFELAALGYE
notes: PID-1, C. elegans, residues 50-70; the results say it was fused to the C-terminus of SUMO; also called PID-1 fragment; source: E. coli BL21(DE3), purified (Ni-NTA); not shown: SUMO, N-terminal, kept
ERH-2
  Kd: 18 µM
[6]
  Kd: 12 µM
